{"source": "paper PMC5800842", "key": {"[1]": {"biological_target": "ZNRF3/RNF43"}, "[2]": {"biological_target": "LGR4 (human (endogenous in HAP1)) (UniProt Q9BXB1)"}}, "data": [{"binder": "HA-RSPO3 R67A/Q72A-Tev-Fc-Avi-1D4 (Fc fusion) QNASRGRRQRRMHPNVSQGCQGGCATCSDYNGCLSCKPRLFFALEAIGMKAIGVCLSSCPSGYYGTRYPDINKCTKCKADCDTCFNKNFCTKCKSGFYLHLGKCLDNCPEGLEANNHTMECVSIVHCEVSEWNPWSPCTKKGKTCGFKRGTETRVREIIQHPSAKGNLCPPTNETRKCTVQRKKCQKGERGKKGRERKRKKPNKGESKEAIPDSKSLESSKEIPEQRENKQQQKKRKVQDKQKSVSVSTVH", "values": [{"measurement": "EC50 of potentiation of WNT reporter fluorescence in WT HAP1-7TGP cells with 1.43% WNT3A CM, fold over wild-type RSPO3", "setting": "[1]", "value": 21, "unit": "fold"}]}, {"binder": "HA-RSPO3 F106E/F110E-Tev-Fc-Avi-1D4 (Fc fusion) QNASRGRRQRRMHPNVSQGCQGGCATCSDYNGCLSCKPRLFFALERIGMKQIGVCLSSCPSGYYGTRYPDINKCTKCKADCDTCENKNECTKCKSGFYLHLGKCLDNCPEGLEANNHTMECVSIVHCEVSEWNPWSPCTKKGKTCGFKRGTETRVREIIQHPSAKGNLCPPTNETRKCTVQRKKCQKGERGKKGRERKRKKPNKGESKEAIPDSKSLESSKEIPEQRENKQQQKKRKVQDKQKSVSVSTVH", "values": [{"measurement": "EC50 of potentiation of WNT reporter fluorescence in WT HAP1-7TGP cells with 1.43% WNT3A CM, fold over wild-type RSPO3", "setting": "[2]", "value": 2.9, "unit": "fold"}, {"measurement": "efficacy (maximum WNT reporter activity) in WT HAP1-7TGP cells with 1.43% WNT3A CM, reduction against wild-type RSPO3", "setting": "[2]", "value": 48, "unit": "% reduction"}]}]}
